Earlier results on one substance are cited in PMC3749945.

In this data set the target is Cdc42 (Homo sapiens) (UniProt P60953).
Sequence of UniProt P60953 (P60953 1-188): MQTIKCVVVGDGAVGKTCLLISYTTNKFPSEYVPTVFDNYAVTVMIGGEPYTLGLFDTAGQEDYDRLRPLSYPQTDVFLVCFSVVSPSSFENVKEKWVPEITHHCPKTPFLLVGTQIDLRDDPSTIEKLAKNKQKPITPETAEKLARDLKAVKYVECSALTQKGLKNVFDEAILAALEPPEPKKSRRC

Regarding WASP (from UniProt P42768), the Kd was 74 nM.
